Reference: patent US20250197491A1 (MACOMICS, published 2025)

Legend:
[1] = molecular target: T1, Human LILRB1 (D1-D2) fused to mouse IgG2a Fc (human); test: summary table (ELISA); N = No
T1 construct: also called truncated (D1-D2) version of the LILRB1 ecto-domain

[2] = molecular target: T2, human LILRB1 ectodomain fused to mIgG2a Fc (human); test: summary table (ELISA); Y = Yes
T2 construct: also called human LILRB1-mIgG2a; full length LILRB1 ectodomain

[3] = molecular target: T3, Human LILRB1(L68P/A93T) ectodomain fused to mIgG2aFc (human); test: ELISA, antigen coated, 10 nM antibody
T3 construct: The entry already carries the two substitutions
T3 sequence (chain, as listed by the source L68P A93T L68P A93T limits assumed): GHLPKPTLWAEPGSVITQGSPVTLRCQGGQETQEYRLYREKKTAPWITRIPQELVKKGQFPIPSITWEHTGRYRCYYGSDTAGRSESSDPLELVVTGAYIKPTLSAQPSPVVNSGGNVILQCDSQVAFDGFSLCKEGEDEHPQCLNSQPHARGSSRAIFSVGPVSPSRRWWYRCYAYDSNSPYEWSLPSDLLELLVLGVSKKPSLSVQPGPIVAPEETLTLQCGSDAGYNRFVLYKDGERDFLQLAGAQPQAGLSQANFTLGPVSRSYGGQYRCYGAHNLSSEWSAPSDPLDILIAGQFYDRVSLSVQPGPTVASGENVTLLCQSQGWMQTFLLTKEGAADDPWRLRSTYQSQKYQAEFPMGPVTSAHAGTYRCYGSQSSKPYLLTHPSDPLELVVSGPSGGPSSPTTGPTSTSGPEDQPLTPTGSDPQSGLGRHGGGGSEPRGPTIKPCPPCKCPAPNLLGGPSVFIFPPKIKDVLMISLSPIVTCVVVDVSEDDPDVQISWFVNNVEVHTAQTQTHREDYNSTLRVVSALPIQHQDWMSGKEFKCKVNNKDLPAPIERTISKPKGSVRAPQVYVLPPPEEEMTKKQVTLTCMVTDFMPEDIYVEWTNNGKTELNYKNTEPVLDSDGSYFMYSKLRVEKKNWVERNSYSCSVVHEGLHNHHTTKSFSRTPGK
Description: (§1) FIG. 3. Mixed LILRB1 and LILRB2 expression in TAMs from melanoma cancer patients. Analysis of LILRB1 and LILRB2 detection in macrophages in pre- and post-anti-PD-1 and/or anti-CTLA-4 therapy treated melanoma patients (n=33) is shown using Smart-seq2 data from Sade-Feldman et al. https://pubmed.ncbi.nlm.nih.gov/30633907/FIG. 4. Binding to domains of human LILRB1. Plates were coated with recombinant full length LILRB1 ectodomain (SEQ ID NO: 41) or a protein comprising domain 1 and 2 of human LILRB1 protein (SEQ ID NO: 42), and then incubated with 10 nM Clones 1-5, Reference Ab 1, and Isotype control. The bound antibodies were detected using HRP-labeled secondary antibodies and the results were plotted on the graph as absorbance measured at 450 nm.
(§2) Binding to allelic forms of LILRB1. There are 4 major allelic variants of human LILRB1 protein ectodomain. The variants of LILRB1 were expressed as recombinant proteins comprising a modified LILRB1 ectodomain and mouse IgG2 Fc region (SEQ ID NO: 50 and 51) in suspension CHO cells, and purified by using techniques that were known in the art. These recombinant proteins were then used in the direct enzyme-linked immunosorbent assay (ELISA) to determine the antibodies potential to bind different allelic forms of LILRB1. In short, Maxisorp (Nunc) or similar immune-assay plates were coated with solutions of target proteins in PBS, at 4° C., overnight. Plates were then washed with PBS, blocked with 5% milk in PBS, and washed again. Test antibodies diluted in PBS were then added to the plates and incubated at room temperature for at least 1h. Plates were subsequently washed with PBS/0.05% Tween-20 (PBST) and incubated with a solution of horse radish peroxidase (HRP) labelled secondary antibodies at room temperature for at least 1 h. After washing with PBST and PBS, bound antibodies were detected using the 3,3′,5,5;-tetramethylbenzidine (TMB) chromogenic solution. After 5 to 10 minutes, the reaction was stopped with 1% sulphuric acid and absorbance read at 450 nm.
(§3) There are four major allelic variants within the ecto-domain of LILRB1 in human population [Human Molecular Genetics, 2005, Vol. 14, 2469-2480]; namely c.203T>C (L68P), c.277G>A (A93T), c.425T>C (I142T), and c.464G>T (S155I).

[4] = molecular target: T4, Human LILRB1(I142T/S155I) ectodomain fused to mIgG2aFc (human); test: ELISA, antigen coated, 10 nM antibody
T4 construct: The entry already carries the two substitutions
T4 sequence (chain, as listed by the source I142T S155I I142T S155I limits assumed): as the sequence (chain, as listed by the source L68P A93T L68P A93T limits assumed) above, with P45L, T70A, I119T, S132I counted along it
Description: as §1, §2, §3

[5] = molecular target: T5, Human LILRA2 ectodomain (human, UniProt Q8N149 24-449); test: summary table (single point ELISA); N = No
T5 construct: Recombinant protein from a commercial source
T5 sequence (Q8N149 24-449 S135L): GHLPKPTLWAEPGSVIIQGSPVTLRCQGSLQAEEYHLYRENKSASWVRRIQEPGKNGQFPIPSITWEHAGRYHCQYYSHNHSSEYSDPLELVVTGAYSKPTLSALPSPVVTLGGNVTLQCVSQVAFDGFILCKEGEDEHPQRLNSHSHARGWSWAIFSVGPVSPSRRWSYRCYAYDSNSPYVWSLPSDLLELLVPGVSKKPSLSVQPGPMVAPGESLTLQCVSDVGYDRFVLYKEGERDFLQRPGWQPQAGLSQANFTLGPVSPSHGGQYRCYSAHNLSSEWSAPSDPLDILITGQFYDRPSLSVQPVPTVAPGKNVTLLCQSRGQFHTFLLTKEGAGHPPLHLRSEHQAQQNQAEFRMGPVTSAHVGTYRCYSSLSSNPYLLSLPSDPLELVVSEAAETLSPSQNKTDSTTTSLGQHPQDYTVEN

[6] = molecular target: LILRB4 recombinant, full-length ectodomain (LILRB4 17-257) (human, UniProt Q8NHJ6 22-257); test: summary table (single point ELISA); N = No
[7] = molecular target: LILRB5 recombinant, full-length ectodomain (LILRB5 18-456) (human, UniProt O75023 24-456); test: summary table (single point ELISA); N = No
Sequence of LILRB5 recombinant, full-length ectodomain (LILRB5 18-456) (O75023 24-456 limits assumed): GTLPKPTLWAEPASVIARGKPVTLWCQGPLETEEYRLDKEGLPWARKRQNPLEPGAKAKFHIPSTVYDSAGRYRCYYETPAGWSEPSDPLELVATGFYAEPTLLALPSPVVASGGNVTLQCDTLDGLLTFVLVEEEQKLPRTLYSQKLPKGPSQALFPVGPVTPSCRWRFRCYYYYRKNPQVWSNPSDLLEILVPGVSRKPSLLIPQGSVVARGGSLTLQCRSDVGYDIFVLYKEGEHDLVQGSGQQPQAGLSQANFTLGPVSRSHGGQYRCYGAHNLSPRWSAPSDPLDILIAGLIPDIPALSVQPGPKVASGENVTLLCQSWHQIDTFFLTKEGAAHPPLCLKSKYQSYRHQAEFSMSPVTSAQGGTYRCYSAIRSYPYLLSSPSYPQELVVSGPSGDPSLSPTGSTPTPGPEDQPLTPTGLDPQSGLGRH

[8] = molecular target: LILRA5 recombinant, full-length ectodomain (LILRA5 42-268) (human, UniProt A6NI73 42-268); test: summary table (single point ELISA); N = No
Sequence of LILRA5 recombinant, full-length ectodomain (LILRA5 42-268) (A6NI73 42-268): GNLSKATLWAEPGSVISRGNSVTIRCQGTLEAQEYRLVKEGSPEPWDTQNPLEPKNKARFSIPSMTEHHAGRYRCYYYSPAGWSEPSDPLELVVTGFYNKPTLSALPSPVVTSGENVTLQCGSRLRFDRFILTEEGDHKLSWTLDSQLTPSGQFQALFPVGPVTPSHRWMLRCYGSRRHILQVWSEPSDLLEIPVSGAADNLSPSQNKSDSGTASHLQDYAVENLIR

[9] = molecular target: LILRB3 recombinant, full-length ectodomain (LILRB3 24-443) (human, UniProt O75022 24-443); test: multi-point ELISA, antigen coated, apparent EC50
Sequence of LILRB3 recombinant, full-length ectodomain (LILRB3 24-443) (O75022 24-443): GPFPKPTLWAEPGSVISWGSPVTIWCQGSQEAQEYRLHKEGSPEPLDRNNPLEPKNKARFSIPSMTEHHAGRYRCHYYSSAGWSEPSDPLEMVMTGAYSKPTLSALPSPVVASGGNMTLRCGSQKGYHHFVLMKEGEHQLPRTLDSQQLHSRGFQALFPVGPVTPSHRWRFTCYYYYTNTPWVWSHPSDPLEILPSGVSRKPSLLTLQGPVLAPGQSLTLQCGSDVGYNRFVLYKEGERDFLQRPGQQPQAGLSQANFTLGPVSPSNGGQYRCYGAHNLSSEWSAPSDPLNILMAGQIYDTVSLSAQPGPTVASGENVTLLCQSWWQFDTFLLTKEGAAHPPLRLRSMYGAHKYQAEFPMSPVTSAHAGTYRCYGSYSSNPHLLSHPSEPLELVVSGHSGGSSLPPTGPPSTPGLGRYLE
Protocol: (§4) FIG. 32. Binding of Clones 1-5 to selected LILR family members tested by multiple point ELISA. Recombinant LILRB1, LILRB2, LILRB3, LILRA1, LILRA3, LILRA4, and LILRA6, or irrelevant control protein were coated on the ELISA plates. The plates were then blocked with milk in PBST. Next, the plates were incubated with serial dilutions (12.5 nM to 0.02 nM) of Clones 1-5 (A-E). Bound antibodies were detected using HRP-conjugated anti-human Fc antibodies and the chromogenic substrate.
as §4, with “Binding of” for “FIG. 32. Binding of”, “point ELISA. (FIG. 32) Recombinant LILRB1,” for “point ELISA. Recombinant LILRB1,”, “LILRA3, LILRA4, LILRA6, or” for “LILRA3, LILRA4, and LILRA6, or”, “nM) of Clone 1-5 (A-E).” for “nM) of Clones 1-5 (A-E).”

[10] = molecular target: human LILRB1 (coated on plates in the competition ELISA) (human, UniProt Q8NHL6 24-461, limits assumed); test: competition ELISA on coated human LILRB1; competitor 5 nM biotinylated Antibody 2
Sequence of human LILRB1 (coated on plates in the competition ELISA) (Q8NHL6 24-461 limits assumed): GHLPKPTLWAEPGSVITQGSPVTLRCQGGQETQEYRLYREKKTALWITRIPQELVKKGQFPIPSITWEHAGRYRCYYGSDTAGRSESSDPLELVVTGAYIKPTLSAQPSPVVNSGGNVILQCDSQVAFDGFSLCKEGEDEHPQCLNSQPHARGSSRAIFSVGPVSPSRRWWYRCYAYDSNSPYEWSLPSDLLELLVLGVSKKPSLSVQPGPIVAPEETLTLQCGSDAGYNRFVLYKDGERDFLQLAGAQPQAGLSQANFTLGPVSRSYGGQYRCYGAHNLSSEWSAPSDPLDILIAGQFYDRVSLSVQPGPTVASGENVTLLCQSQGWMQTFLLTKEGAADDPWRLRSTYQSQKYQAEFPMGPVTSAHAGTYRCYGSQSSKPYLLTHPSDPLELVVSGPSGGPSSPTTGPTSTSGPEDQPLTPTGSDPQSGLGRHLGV
Protocol: FIG. 33. Cross-competition between Antibody (Clone) 2 and other Abs in ELISA. Plates were coated with human LILRB1 and, after blocking, incubated with 5 nM of biotinylated Clone 2 and different concentrations of unlabelled Clones 1-5 and the Reference 1-3 Abs. Bound biotinylated Clone 2 was detected using HRP-conjugated streptavidin and a chromogenic substrate. Unlabelled Clone 2 competed its biotinylated counterpart with low nM IC₅₀, while Clones 1, 3, 4 and 5 each yielded IC₅₀ of about 10 nM. None of the Reference Abs, nor the isotype control, could compete with Antibody 2 up to 250 nM concentrations.
Antibodies 1 to 5 were all found to bind within the D3-D4 fragment of human LILRB1. To investigate if Antibody 2 binds to an epitope similar to or different from the epitope of the other Antibodies (and Reference Antibodies) a competitive ELISA was performed. Plates were coated with human LILRB1 and after blocking incubated with 5 nM of biotinylated Antibody 2 and different concentrations of each unlabelled Antibody 1-5 and the Reference Antibodies 1 to 3. Bound biotinylated Antibody 2 was detected using HRP-conjugated streptavidin and a chromogenic substrate. Unlabelled Antibody 2 competed its biotinylated counterpart with low nM IC₅₀, while Antibodies 1, 3, 4 and 5 yielded IC₅₀ about 10 nM. None of the Reference Abs nor the isotype control could compete with Antibody 2 up to 250 nM concentrations.

T2 sequence (chain, as listed by the source limits assumed): as the sequence (chain, as listed by the source L68P A93T L68P A93T limits assumed) above, with P45L, T70A counted along it
T1 sequence (chain, as listed by the source limits assumed): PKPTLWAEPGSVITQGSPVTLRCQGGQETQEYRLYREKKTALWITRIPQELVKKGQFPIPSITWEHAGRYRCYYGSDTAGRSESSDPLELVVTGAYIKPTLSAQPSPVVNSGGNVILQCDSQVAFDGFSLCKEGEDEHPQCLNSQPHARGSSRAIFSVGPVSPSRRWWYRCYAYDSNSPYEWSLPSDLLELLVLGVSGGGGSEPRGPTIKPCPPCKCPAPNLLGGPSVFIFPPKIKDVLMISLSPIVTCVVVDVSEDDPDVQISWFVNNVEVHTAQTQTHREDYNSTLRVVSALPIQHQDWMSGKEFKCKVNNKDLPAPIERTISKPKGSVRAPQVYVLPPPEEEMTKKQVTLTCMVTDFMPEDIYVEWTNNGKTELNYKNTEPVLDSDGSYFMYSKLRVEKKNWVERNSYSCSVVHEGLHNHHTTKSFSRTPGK

Row | Binder | binding result [1] | binding result [2] | binding result [3] | binding result [4] | binding result [5] | binding result [6] | binding result [7] | binding result [8] | EC50 [9] | IC50 [10]
1 | Antibody 3 (antibody, V domains shown, Fully human antibody; IgG4; also called Clone 3; Antibody Clone 3) VH: QVQLVQSGAEVKKPGASVKVSCKASGYTFTSYGISWVRQAPGQGLEWMGWISAYNGNTNYAQKLQGRVTMTTDTSTSTAYMELRSLRSDDTAVYYCARSYSGSHWWFDPWGQGTLVTVSS VL: not shown | no binding | binds | binds | binds | no binding (tested: 1 nM) | no binding (tested: 1 nM) | no binding (tested: 1 nM) | no binding (tested: 1 nM) | 1.75 nM | ~10 nM
2 | Antibody 4 (antibody, V domains shown, Fully human antibody; IgG4; also called Clone 4; Antibody Clone 4) VH: QVQLVQSGAEVKKPGASVKVSCKASGYTFTSYGISWVRQAPGQGLEWMGWISAYNGNTNYAQKLQGRVTMTTDTSTSTAYMELRSLRSDDTAVYYCARSYSGSYWWFDPWGQGTLVTVSS VL: not shown | no binding | binds | binds | binds | no binding (tested: 1 nM) | no binding (tested: 1 nM) | no binding (tested: 1 nM) | no binding (tested: 1 nM) | 1.38 nM | ~10 nM
3 | Antibody 1 (antibody, V domains shown, Fully human antibody expressed in CHO; also called Clone 1; Antibody Clone 1) VH: QVQLVESGGGLVKPGGSLRLSCAASGFTFSDYYMSWIRQAPGKGLEWVSYISSSGSIKKYADSVKGRFTISRDNAKNSLYLQMNSLRGEDTAVYYCARTNWHFDYWGQGTLVTVSS VL: EIVLTQSPGTLSLSPGERATLSCRASQSVSSSYLAWYQQKPGQAPRLLIFGASTRATGIPDRFSGSGSGTDFTLTISRLEPEDVAVYYCQQYYSTPFTFGPGTKVDIK | no binding | binds | binds | binds | no binding (tested: 1 nM) | no binding (tested: 1 nM) | no binding (tested: 1 nM) | no binding (tested: 1 nM) | 2 nM | ~10 nM
4 | Antibody 5 (antibody, V domains shown, Fully human antibody; IgG4; also called Clone 5; Antibody Clone 5) VH: QVQLVESGGGLVKPGGSLRLSCAASGFTFSDYYMTWIRQAPGKGLEWVSYISISGITRYYADSVKGRFTISRDNAKNSLYLQMNSLRAEDTAVYYCARDQTGYFDYWGQGTLVTVSS VL: DIVMTQSPATLSVSPGEKTTLSCRASQSFSSNLAWYQQKPGQAPRLLIYGASTRATGIPARFSGSGSGTEFTLTISSLQSEDFAVYYCQQYINWPHTFGQGTKVEIK | no binding | binds | binds | binds | no binding (tested: 1 nM) | no binding (tested: 1 nM) | no binding (tested: 1 nM) | no binding (tested: 1 nM) | 0.99 nM | ~10 nM
